Among the data in patent US20210330762A1 are IC50 (nM) of α2-AP inhibition of µPlm amidolytic activity (S-2403), IC50 Fold Increase and activity remaining values, retold here.

Holding throughout (assay): cell-based or functional assay
The target in experiment [1] is wild-type microplasmin (WT µPlm), refolded from E. coli µPlg and activated with urokinase (human) (UniProt P00747).
Experiment [2] concerns the target µPlm mutant F587I (human) (UniProt P00747).
The target in experiment [3] is µPlm mutant F587V (human) (UniProt P00747).
Experiment [4] has as its target µPlm mutant F587A (human) (UniProt P00747).
Experiment [5] has as its target µPlm mutant F587M (human) (UniProt P00747).
The target of experiment [6] is µPlm mutant F587Q (human) (UniProt P00747).
The target in experiment [7] is µPlm mutant F587D (human) (UniProt P00747).
Experiment [8] has as its target µPlm mutant F587R (human) (UniProt P00747).
Experiment [9] deals with µPlm mutant F587N (human) (UniProt P00747).

B1: α2-antiplasmin (α2-AP), purified from human serum (protein)
chain: NQEQVSPLTLLKLGNQEPGGQTALKSPPGVCSRDPTPEQTHRLARAMMAFTADLFSLVAQTSTCPNLILSPLSVALALSHLALGAQNHTLQRLQQVLHAGSGPCLPHLLSRLCQDLGPGAFRLAARMYLQKGFPIKEDFLEQSEQLFGAKPVSLTGKQEDDLANINQWVKEATEGKIQEFLSGLPEDTVLLLLNAIHFQGFWRNKFDPSLTQRDSFHLDEQFTVPVEMMQARTYPLRWFLLEQPEIQVAHFPFKNNMSFVVLVPTHFEWNVSQVLANLSWDTLHPPLVWERPTKVRLPKLYLKHQMDLVATLSQLGLQELFQAPDLRGISEQSLVVSGVQHQSTLELSEVGVEAAAATSIAMSRMSLSSFSVNRPFLFFIFEDTTGLPLFVGSVRNPNPSAPRELKEQQDSPGNKDFLQSLKGFPRGDKLFGPDLKLVPPMEEDYPQFGSPK
Consider B1, for which the IC50 (nM) of α2-AP inhibition of µPlm amidolytic activity (S-2403) stood at 37.9 nM in experiment [1]; 46.4 nM in experiment [2]; 65.2 nM in [3]; 150 nM in experiment [4]; 77.6 nM in [5]; 63.2 nM in [6]. Besides, the IC50 (nM) of α2-AP inhibition of µPlm amidolytic activity (S-2403) in experiment [7] worked out at 106 nM; in experiment [8], 164 nM; in experiment [9] it was 105 nM. The IC50 Fold Increase was determined as 1 fold in experiment [1]; 1.2 fold in experiment [2]; 1.7 fold in experiment [3]; 4 fold in experiment [4]; 2 fold in experiment [5]; 1.7 fold in experiment [6]. Moreover, the IC50 Fold Increase in experiment [7] was found to be 2.8 fold; in [8], 4.3 fold; in experiment [9] it was 2.8 fold. The activity remaining at 2 times concentration of α2-AP (% activity remaining) in [4] amounted to 50.
